Data reported in PMC6232179 (Scientific Reports, 2018).

What was measured:
COX-2 peroxidase = conditions: COX-2 H374Y mutant; cited from earlier work
Description: Thus, we generated a cell line overexpressing His-tagged COX-2 (HEK293 COX-2 OE) as well as a cell line overexpressing the His-tagged COX-2 H374Y mutant (Fig. 6A), which has a 300-fold reduction in peroxidase activity.

IRE1-NLD = assay: MST, COX-2 titrated to RED-labeled IRE1-NLD; assay type: binding; conditions: red labelled IRE1-NLD, Suppl. Fig. S9
Procedure: MST was carried out using a Monolith NT.115 instrument (NanoTemper). To evaluate COX-2 binding to IRE1-NLD, an increasing concentration of purified COX-2 protein (0–10 µM) was incubated with RED-labeled purified IRE1-NLD protein (NanoTemper; as per manufacturer’s protocol). The reverse was also performed, with RED-labeled purified COX-2 incubated with an increasing concentration of purified IRE1-NLD. Positive (cyclophilin A) and negative controls (carbonic anhydrase) were included. […] Positive (cyclophilin A) and negative controls (carbonic anhydrase) were included. […] Experiments were done in triplicate and data evaluation was performed using the Monolith software (NanoTemper).

B1: COX-2 H374Y: COX-2 H374Y mutant protein (protein)
chain: ANPCCSHPCQNRGVCMSVGFDQYKCDCTRTGFYGENCSTPEFLTRIKLFLKPTPNTVHYILTHFKGFWNVVNNIPFLRNAIMSYVLTSRSHLIDSPPTYNADYGYKSWEAFSNLSYYTRALPPVPDDCPTPLGVKGKKQLPDSNEIVEKLLLRRKFIPDPQGSNMMFAFFAQHFTHQFFKTDHKRGPAFTNGLGHGVDLNHIYGETLARQRKLRLFKDGKMKYQIIDGEMYPPTVKDTQAEMIYPPQVPEHLRFAVGQEVFGLVPGLMMYATIWLREHNRVCDVLKQEHPEWGDEQLFQTSRLILIGETIKIVIEDYVQHLSGYHFKLKFDPELLFNKQFQYQNRIAAEFNTLYHWYPLLPDTFQIHDQKYNYQQFIYNNSILLEHGITQFVESFTRQIAGRVAGGRNVPPAVQKVSQASIDQSRQMKYQSFNEYRKRFMLKPYESFEELTGEKEMSAELEALYGDIDAVELYPALLVEKPRPDAIFGETMVEVGAPFSLKGLMGNVICSPAYWKPSTFGGEVGFQIINTASIQSLICNNVKGCPFTSFSVPDPELIKTVTINASSSRSGLDDINPTVLLKERSTEL
modifications: left off: His6, end not stated, state not stated
notes: COX-2 H374Y mutant protein
For B1, the “fold reduction in peroxidase activity” value (COX-2 peroxidase) is given as 300 fold and the “binding to IRE1-NLD (MST), wild-type and H374Y” value (IRE1-NLD) is given as “bound to IRE1-NLD”.
